Tested on: HhaI restriction endonuclease
Assay: cleavage_in_vitro
Conditions: 37 C 2 h

Sequence | activity (cycles (deltaCq test vs control locus)) (100% ssDNA, digestion impaired) | activity (cycles (deltaCq test vs control locus)) (100% dsDNA, no visible amplification of test locus after digestion)
CGGATAGCGCGGCGGGCGACAGCCCCCCGGATAACCCCGCCGAGGGAGGGGCGCTTGTAAAACCGAGCGGCG [lung cancer test locus, synthetic ssDNA oligonucleotide] | 7.51 | 
CGGATAGCGCGGCGGGCGACAGCCCCCCGGATAACCCCGCCGAGGGAGGGGCGCTTGTAAAACCGAGCGGCG (double strand) [lung cancer test locus, unmethylated genomic dsDNA (A-673)] |  | > 18
